In article PMC6305311 one finds Km, Vmax and kcat data, which are given here for two proteins.

Substrate in the series: O=[N+]([O-])c1ccc(O[C@@H]2O[C@H](CO)[C@@H](O)[C@H](O)[C@H]2O)cc1
Put plainly: purified protein. Particulars: 5 min, pNPG 0.5-5.0 mg/ml.

Where [1] appears, read: optimal pH (6.0) and temperature.
[2] abbreviates: optimal pH 6.0 and temperature 50°C, pH 6.0, 50.0 °C.

B1: AaBGL1 (Thermomonospora amylolytica) (protein)
chain: MNLPADFLFGAATSAYQIEGAPAADGRLPSIWDDFCRVPGAIAGGDTGDVACDHYHRWREDVALMRRLGLDAYRFSVAWPRVVPRGTGEVNRPGLDFYDRLVDALLAAGIRPFVTLYHWDLPSALQERGGWPSRDTAAHFADYAAVVAARLGDRVTDWTTLNEPLCTAWIGHLEGRFAPGVRDLRQAVHASHHLLLAHGLGAAAIRANASAPPSIGLVNNLSPIQAASDRPEDVRAAIRADGHVNRWWLDPAHGRGYPADMIEVYGVEPPVRDGDLETIAAPVEYVGLNYYFRQIVADDPDGPAPYARQVPVPGAQTTAMGWEVHADGLAELLLRLSEDYTAPRIYVTESGSAWDDKVGADGSINDQDRIAYLEDHLAAVARAAEAGAPVQGYFVWSLLDNFEWADGLDKRFGLVHVDYATQQRTVKASGHRYAEIIRAHRGAP
Regarding B1, under setting [1], the Michaelis-Menten constant (Km) stood at 3300 µM, the Vmax came to 6.8 µmol/min/mg and the kcat worked out at 5.5 s⁻¹.

B2: AaBGL2 (Thermomonospora amylolytica) (protein)
chain: MTAHETQAQIREPATAPFPQDFRWGAATSAYQIEGAVAEDGRGRSIWDTFCDTPGAVLGGDTAAEAVDHYHRYREDVALMAGLGLNAYRFSLSWPRIQPSGTGPADQRGLDFYRRLVDELLEAGIEPWITLYHWDLPQALEDKGGWPERDTALRFAEFAALAHGALGDRVSNWMTINEPWCAAYLGYASGEHAPGRREPAAALEAAHHLLLGHGLAVEAMRGQRSGARIGPAVNLYAVSPAADTPEDLDAARRIDGLQNRFFLDALLLGRYPDDLLEDLAPFGFADCVRDGDMRVVGVRNDLLGINYYTRHTVSGRPGDATQAVSSPFSTVSPWVGSEHVRFVGQGKPVTGMGWEVDPDGLLEVLARLHREYPAVPLYITENGAGYDDVLDADDAVRDDERIAYLDAHLRVCARAIDAGIPLRGYFTWSLMDNFEWAWGYSKRFGLVYVDYATQRRIPKASARWYARTIRRGGLPD
Consider B2, for which, under setting [2], the Michaelis constant (Km) was 730 µM, the Vmax came to 1.9 µmol/min/mg and the catalytic constant (kcat) is 1.7 s⁻¹.

For orientation: Km means the concentration of substrate that gives half-maximal velocity. The term Vmax denotes the top rate of the reaction or transport when substrate is in excess. What is called kcat is the number of substrate molecules converted per active site and unit of time at saturation.
